One assay concerns HSC-T6 cells. Briefly: PPARγ induction and PPARγ siRNA reversal in HSC-T6 cells. Format: cell-based, rat. The note with it: 48 hours; RT-PCR and immunoblot. The procedure: HSC-T6 cells, a rat immortalized HSC, retained all features of activated HSCs and was kindly provided by Dr. Friedman S L (Kim et al., J Biol Chem 1998 273:33750-33758). HSC-T6 cells were grown in Waymouth medium supplemented with 10% FBS at 37° C. in a humidified atmosphere of 5% CO2.
The total RNA was extracted from cells using the TRIzol (Invitrogen, Carlsbad, Calif.). […] The intensities of the PCR products were quantified using a FUJI LAS-3000 densitometer and Multi Gauge Ver. […]
Cells were scraped into lysis buffer (150 μL/35-mm well) containing 20 mM HEPES (pH 7.4), 1% SDS, 150 mM NaCl, 1 mM EGTA, 5 mM β-glycerophosphate, 10 mM sodium pyrophosphate, 10 mM sodium fluoride, […] sodium orthovanadate, 10 μg/mL leupeptin, and 10 μg/mL aprotinin. […] Proteins of interest were detected using the appropriate IgG-HRP secondary antibody and ECL reagent. X-ray films were scanned on a Model GS-700 Imaging Densitometer (Bio-Rad Laboratories, Hercules, Calif.) and analyzed using Labworks 4.0 software. For quantification, blots from at least three independent experiments were used. […]
(A western blot detects proteins with antibodies after separation by electrophoresis.)

The subject of assay [1] is liver-derived progenitor cells (LDPCs) in primary rat liver cells. In words: Clonogenic capacity of liver cells (LDPC colony formation). Format: cell-based. The note with it: basal medium with 4.5 nM PEDF, 50 nM 34-mer, 50 nM 44-mer or 10% FBS; after 11 days in culture. The procedure: Liver cells from Sprague Dawley rats were harvested by 2-step in situ collagenase perfusion technique. The cells were then washed in phosphate buffered saline and centrifuged (50 g for 5 minutes) twice at room temperature. The cells were not further subjected to any fractionation as previously described (Sahin M B et al., Liver Transpl. 2008 14(3):333-45). Freshly isolated rat liver cells were cultured in a medium consisting of 75% Dulbecco's modified Eagle's medium (DMEM) and 25% MCDB 201 (Sigma-Aldrich) supplemented with 10% fetal bovine serum, 1 mg/mL of bovine serum albumin (BSA; Sigma), 100 μM of β-mercaptoethanol (Gibco, Carlsbad, Calif.), 25 mM of 4-2-hydroxyethyl-1-piperazineethanesulfonic acid (HEPES), 5 mM of Nicotinamide (Sigma-Aldrich), 1% SITE liquid medium (Sigma-Aldrich), and penicillin (100 μg/ml)/streptomycin (100 μg/ml; Invitrogen, Carlsbad, Calif.) on Type I collagen (Sigma, St. Louis, Mo.) coated tissue culture plates or dishes at a density of 1×10^4 cells/cm^2 at 37° C. in 5% CO2.
To verify the function of 44-mer PEDF, primary rat liver cells were isolated in accordance with steps described above and cultivated (about 1×10^5 per well of 6-well plate; 1×10^4 cells/cm^2) in a conventional basal medium, which was further supplemented with 4.5 nM PEDF, 50 nM 34-mer PEDF, 50 nM 44-mer PEDF or 10% FBS. Medium was changed every 3 days. After being placed in culture for 11 days, clonogenic capacity of liver cells was continuously monitored by phase-contrast microscopy. During this time period, liver-derived progenitor cells (LDPCs) began markedly emerged in primary liver cultures while hepatocytes started dying out. Few colonies were formed by liver cells when continuously cultivated in basal medium, or medium supplemented with 34-mer or FBS.

Here are results for 1 molecule from patent publication US8507446B2, “Use of PEDF-derived polypeptides for treating liver cirrhosis” (MacKay Memorial Hospital, priority 2011, dated 2013).

B1: pigment-epithelium-derived factor (protein, UniProt P36955 20-418, looked up)
Pigment epithelium-derived …: QNPASPPEEGSPDPDSTGALVEEEDPFFKVPVNKLAAAVSNFGYDLYRVRSSTSPTTNVLLSPLSVATALSALSLGAEQRTESIIHRALYYDLISSPDIHGTYKELLDTVTAPQKNLKSASRIVFEKKLRIKSSFVAPLEKSYGTRPRVLTGNPRLDLQEINNWVQAQMKGKLARSTKEIPDEISILLLGVAHFKGQWVTKFDSRKTSLEDFYLDEERTVRVPMMSDPKAVLRYGLDSDLSCKIAQLPLTGSMSIIFFLPLKVTQNLTLIEESLTSEFIHDIDRELKTVQAVLTVPKLKLSYEGEVTKSLQEMKLQSLFDSPDFSKITGKPIKLTQVEHRAGFEWNEDGAGTTPSPGLQPAHLTFPLDYHLNQPFIFVLRDTDTGALLFIGKILDPRGP
notes: pigment-epithelium-derived factor protein, used at 4.5 nM (200 ng/ml)
As to B1, the “mRNA and protein expression of PPARγ” value in the assay with HSC-T6 cells is recorded as “induced”. Also, the “colonies of LDPCs formed” value in assay [1] is reported as “dense colonies”.
